Results: US20140056907A1 (Regeneron, published 2014)

How the values were obtained:
[1] = molecular target: T1, mouse ASIC3 (mouse, UniProt Q6X1Y6 1-530); test: FACS, 3T3/mASIC3 cells
T1 construct: whole, on cells; Expressed on stably transfected 3T3 cells (3T3/mASIC3); also called mASIC3
T1 sequence (looked up): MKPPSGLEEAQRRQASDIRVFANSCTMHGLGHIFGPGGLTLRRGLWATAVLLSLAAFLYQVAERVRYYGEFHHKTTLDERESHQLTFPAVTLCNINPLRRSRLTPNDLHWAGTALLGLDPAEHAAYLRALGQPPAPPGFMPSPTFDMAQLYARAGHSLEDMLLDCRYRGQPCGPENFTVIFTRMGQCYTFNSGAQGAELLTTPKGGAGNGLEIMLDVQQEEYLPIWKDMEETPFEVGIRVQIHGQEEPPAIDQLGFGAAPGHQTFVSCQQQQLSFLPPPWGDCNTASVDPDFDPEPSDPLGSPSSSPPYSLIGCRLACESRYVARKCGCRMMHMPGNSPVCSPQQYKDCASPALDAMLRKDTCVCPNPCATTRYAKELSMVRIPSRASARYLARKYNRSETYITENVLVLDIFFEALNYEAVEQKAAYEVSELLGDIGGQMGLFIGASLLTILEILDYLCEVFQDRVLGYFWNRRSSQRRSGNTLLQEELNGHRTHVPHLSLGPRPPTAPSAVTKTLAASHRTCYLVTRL
From the text: (§1) For these experiments, four cell lines were constructed: (a) a mouse fibroblast 3T3 cell line stably transfected to overexpress full length human ASIC3 (3T3/hASIC3; amino acids 1-531 of NCBI accession number NP_{—}004760.1), (b) a 3T3 cell line stably transfected to co-express full length human ASIC1a and human ASIC3 (3T3/hASIC1/3; amino acids 1-528 of NCBI accession number NP_{—}001086.2 and amino acids 1-531 of NCBI accession number NP_{—}004760.1), (c) […] a stably transfected 3T3 cell line expressing the full-length mouse ASIC3 channel (3T3/mASIC3; amino acids 1-530 of NCBI accession number NP_{—}892045.2), and (d) a 3T3 cell line stably transfected to co-express full length mouse ASIC1a and mouse ASIC3 (3T3/mASIC1/3; amino acids 1-526 of NCBI accession number NP_{—}033727 and amino acids 1-530 of NCBI accession number NP_{—}892045.2). Antibody binding was determined using flow cytometry (FACS).
To perform the FACS binding experiments, adherent cells were collected with cold Millipore Accutase 3-5 minutes, spun and resuspended in ice-cold FACS buffer (PBS, 2% HI-FBS and 0.09% Na-azide). […] After incubating for 20 minutes on ice, the cells were washed and resuspended in FACS buffer, then sorted and analyzed on a flow cytometer (FACSCanto II, BD Biosciences, San Jose, Calif.) to determine relative binding by the candidate antibodies to the tested cell lines. […]

[2] = molecular target: T2, human ASIC1 (human, UniProt P78348 1-528); test: cell-based or functional assay
T2 sequence: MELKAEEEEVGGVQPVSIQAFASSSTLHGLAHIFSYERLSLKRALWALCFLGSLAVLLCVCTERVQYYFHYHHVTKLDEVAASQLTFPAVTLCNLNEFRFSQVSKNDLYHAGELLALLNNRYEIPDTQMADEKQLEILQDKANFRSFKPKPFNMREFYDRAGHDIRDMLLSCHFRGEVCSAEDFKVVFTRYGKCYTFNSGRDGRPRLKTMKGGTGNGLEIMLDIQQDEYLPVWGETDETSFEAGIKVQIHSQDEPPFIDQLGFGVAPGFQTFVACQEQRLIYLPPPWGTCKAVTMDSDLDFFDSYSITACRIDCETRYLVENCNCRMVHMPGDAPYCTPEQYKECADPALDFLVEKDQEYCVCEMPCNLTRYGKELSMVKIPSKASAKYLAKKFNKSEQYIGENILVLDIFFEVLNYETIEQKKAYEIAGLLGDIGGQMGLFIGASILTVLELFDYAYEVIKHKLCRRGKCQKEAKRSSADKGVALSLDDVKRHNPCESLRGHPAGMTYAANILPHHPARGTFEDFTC

[3] = molecular target: T3, human ASIC3 (human, UniProt Q9UHC3 1-531); test: FACS, 3T3/hASIC3 cells
T3 construct: whole, on cells; Expressed on 3T3 cells (3T3/hASIC3) or HEK293 cells (HEK/hASIC3-QCells); also called hASIC3
T3 sequence (looked up): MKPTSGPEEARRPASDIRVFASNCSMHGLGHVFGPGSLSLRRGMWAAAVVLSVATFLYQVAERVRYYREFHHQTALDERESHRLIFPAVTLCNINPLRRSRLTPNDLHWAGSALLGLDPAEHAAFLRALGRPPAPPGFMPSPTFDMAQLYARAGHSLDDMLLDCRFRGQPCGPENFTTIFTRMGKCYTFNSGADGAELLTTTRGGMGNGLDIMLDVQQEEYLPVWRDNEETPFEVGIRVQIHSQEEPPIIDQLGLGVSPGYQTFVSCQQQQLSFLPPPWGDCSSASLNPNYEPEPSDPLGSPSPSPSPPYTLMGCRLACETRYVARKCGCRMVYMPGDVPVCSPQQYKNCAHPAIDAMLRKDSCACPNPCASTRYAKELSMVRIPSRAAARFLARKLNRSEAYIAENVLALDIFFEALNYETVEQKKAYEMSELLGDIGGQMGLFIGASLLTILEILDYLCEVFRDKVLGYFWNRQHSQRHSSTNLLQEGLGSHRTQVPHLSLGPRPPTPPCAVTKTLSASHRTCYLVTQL
From the text: as §1
(§2) To perform the FACS binding experiments, adherent cells were collected with cold Millipore Accutase 3-5 minutes, spun and resuspended in ice-cold FACS buffer (PBS, 2% HI-FBS and 0.09% Na-azide). Anti-ASIC1 antibody at final concentrations of 10 nM was added for 20-30 minutes on ice. Cells were washed with 900 μL ice-cold FACS buffer, spun, and resuspended in 100 μL ice-cold FACS buffer. A secondary antibody which recognizes human Fc (Jackson Immuno Research, #109-136-098) and is conjugated to allophycocyanin, was then added to the cell mixture at a final concentration of 2.5 ug/mL. After incubating for 20 minutes on ice, the cells were washed and resuspended in FACS buffer, then sorted and analyzed on a flow cytometer (FACSCanto II, BD Biosciences, San Jose, Calif.) to determine relative binding by the candidate antibodies to the tested cell lines. Histograms of cells stained with anti-ASIC1 antibodies were compared with those of cells stained with secondary antibody alone. Percentage of ASIC1 signal over secondary antibody alone was calculated using FlowJo software (Tree Star, Ashland, Oreg.).

[4] = molecular target: T4, mouse ASIC1/ASIC3 channels (co-expressed mouse ASIC1a and mouse ASIC3) (mouse, UniProt Q6NXK8 1-526; Q6X1Y6 1-530); test: FACS, 3T3/mASIC1/3 cells, 10 nM antibody
T4 construct: whole, on cells; 3T3 cells co-expressing both subunits; also called 3T3/mASIC1/3
T4 sequence (looked up) 1: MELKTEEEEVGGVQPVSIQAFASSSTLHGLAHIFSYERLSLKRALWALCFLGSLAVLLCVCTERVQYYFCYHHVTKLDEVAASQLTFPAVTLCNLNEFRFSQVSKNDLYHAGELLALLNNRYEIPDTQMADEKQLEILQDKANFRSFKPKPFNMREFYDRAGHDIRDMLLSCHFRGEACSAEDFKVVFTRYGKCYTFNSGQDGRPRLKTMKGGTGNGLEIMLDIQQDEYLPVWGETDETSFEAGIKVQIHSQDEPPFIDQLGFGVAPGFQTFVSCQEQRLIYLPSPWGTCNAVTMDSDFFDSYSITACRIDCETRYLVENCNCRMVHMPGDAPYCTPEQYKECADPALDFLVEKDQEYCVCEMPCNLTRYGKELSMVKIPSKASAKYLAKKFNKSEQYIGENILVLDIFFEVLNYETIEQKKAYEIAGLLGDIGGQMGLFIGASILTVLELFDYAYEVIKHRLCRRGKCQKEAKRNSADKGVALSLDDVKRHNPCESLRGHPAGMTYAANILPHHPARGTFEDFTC
T4 sequence (looked up) 2: T1 sequence (looked up)
Description: Antibody binding was determined using flow cytometry (FACS).
as §2

B1: H4H6718N (antibody, human IgG4, V domains shown)
VH: EVQLLESGGGLVQPGGSLRLSCAASGFTFSSFAMSWVRQAPGKGLEWVSGISGSGGGTHYADSVKGRFTISRDNSKNMVYLQMNSLRAEDTAAYYCAKEAYKWQPWGQGTLVTVSS
VL: DIQMTQSPSTLSASVGDRVIITCRASQRISSWLAWYQQKPGKAPNLLIYKASILESGVPSRFSGSGSGTEFTLTISSLQPDDFATYYCQQYNSYSYTFGQGTKLEIK
binding result [1]: no binding (tested: 10 nM) | apparent IC50, human ASIC1 current, Q-Patch [2]: < 1 nM | binding result [3]: no binding (tested: 10 nM; gated lower than 1%) | binding result [4]: binds
